Laboratory results from patent US20060019335A1, “Compositions and methods to promote c-IAP autodegradation” (priority 2004, published 2006).
“Also recorded” adds a separate entry of the source.

What was measured:
[1] = system: c-IAP1; assay: Co-transfection of HeLa cells with c-IAP1 and Smac plasmids, Western blot; format: cell-based, human; settings: for auto-ubiquitylation (E3 activity) of c-IAP1: co-transfection, FIG. 2A
Experimental: (§1) Transfection of cultured Cells—HeLa cells were grown in DMEM supplemented with 10% fetal bovine serum. Cells were seeded onto 6-well plates the day before transfection and transfected at 70% confluence by using Lipofectin combined with Plus reagent (Invitrogen) according to the manufacture's protocols. The IAP expression plasmids (3 μg each for c-IAP1, c-IAP2 and XIAP, and 250 ng each for Livin αand Livin β) together with 2.5 μg of Smac expression plasmids or pcDNA3.1(−) blank plasmid were used for single-well transfection in the absence of antibiotics. The cells were harvested 12 hours after the transfection and lysed with 0.5% CHAPS in 20 mM HEPES (pH 7.4), 10 mM KCl, 1 mM MgCl2 and 1 mM DTT. The lysates were centrifuged and the protein concentrations of the supernatants were quantified by the modified Bradford method (36).
(§2) Western Blot analysis—Proteins were resolved by SDS-PAGE and transferred to nitrocellulose filters. The filters were blocked with 5% milk and probed with antibodies as indicated. The signals were visualized with the enhanced chemiluminescence method.
(§3) To investigate the effect of Smac polypeptide on IAP protein levels, HeLa cells were transfected with the expression vectors for Smac and various IAPs. Briefly, HeLa cells were either transfected with IAP alone (Lane 2, 4 and 6), or together with Smac polypeptide (Lane 3, 5 and 7), or with Smac polypeptide alone (Lane 1). Equal amounts of cell lysates (7 μg) were immunoblotted with either the HRP-conjugated anti-FLAG antibody (shown in the top panel) in order to detect N-terminal 3×FLAG tagged IAPs, or with the anti-c-Myc antibody (bottom panel) to detect C-terminal c-Myc tagged Smac. The ubiquitin fusion technique was used to secure the production of mature Smac protein with the expected N-terminal AVPI motif (6, 37).
(§4) Because it is known that the His^588 residue in the RING finger domain is important for the IAP E3 activity (22), this residue was mutated to test whether Smac stimulated the ubiquitylation-mediated degradation of both c-IAP1 and c-IAP2. In each case, His^588 in c-IAP1 and His^574 in c-IAP2 was mutated to Ala (H588A mutant and H574A mutant, respectively) and the results are depicted in FIGS. 2A and 2B. The c-IAP1 WT or H588A mutant plasmids together with either Smac WT or Smac ΔA mutant, or with pcDNA3.1 (−) blank plasmid were co-transfected into HeLa cells (FIG. 2A). The c-IAP2 WT or H574A mutant plasmids together with either Smac WT or Smac ΔA mutant, or with pcDNA3.1 (−) blank plasmid were co-transfected into HeLa cells (FIG. 2B). As controls, HeLa cells were also transfected with either Smac WT or ΔA plasmids together with the blank p3×FLAG-CMV-7 plasmid. The transfected cells were cultivated either in the absence (see lanes 1-7 of FIGS. 2A and 2B) or in the presence (see lanes 8-14 of FIGS. 2A and 2B) of MG132. Equal amounts of soluble proteins (7 μg) from the transfected cells were immunoblotted with either the HRP-conjugated anti-FLAG antibody (see top panel of FIGS. 2A and 2B) to detect N-terminal 3×FLAG tagged IAPs, or with the anti-c-Myc antibody (see middle panel of FIGS. 2A and 2B) to detect C-terminal c-Myc tagged Smac. The anti-Actin immunoblotting results were to show equal protein loading (see bottom panel of FIGS. 2A and 2B).

[2] = biological target: T1, c-IAP2 (Homo sapiens, UniProt Q13489); assay: Co-transfection of HeLa cells with c-IAP2 and Smac plasmids, Western blot; format: cell-based; settings: for ubiquitylation and degradation (E3 activity) of c-IAP2: co-transfection, FIG. 2B
T1 construct: produced not only the expected full length c-IAP1 or c-IAP2; expressed in transfected cells; host or cells: HeLa
Experimental: as §1, §2, §3, §4

[3] = system: c-IAP1; assay: In vitro ubiquitylation assay of purified c-IAP1 and BIR deletion mutants; format: biochemical, human; settings: for c-IAP1 auto-ubiquitylation in vitro: full length c-IAP1, UbCH6 as E2, FIG. 7A
Experimental: In vitro ubiquitylation assays—In vitro ubiquitylation assays were carried out as previously described (29). IAP proteins (200 nM) were incubated with or without Smac polypeptide for 2 hours at 30° C. in a reaction system containing 50 mM Tris-HCl (pH 7.5), 50 mM NaCl, 2 mM Mg-ATP, 20 μM mammalian ubiquitin, 100 nM rabbit ubiquitin-activating enzyme (E1) and 400 nM of recombinant human ubiquitin-conjugating enzymes (E2). The reactions were stopped by adding equal volumes of 2×SDS sample loading buffer followed by Western Blot analysis.
To determine whether Smac promotes auto-ubiquitylation of XIAP, purified XIAP (without tag) was incubated for 2 hours at 30° C. either with or without different concentrations of Smac or with Smac ΔA in the reconstituted ubiquitylation reaction system (Ub Mix) consisting of 50 mM Tris-HCl (pH 7.5), 50 mM NaCl, 2 mM Mg-ATP, 20 μM mammalian ubiquitin, 100 nM rabbit ubiquitin-activating enzyme (E1) and 400 nM UbCH6 (E2). The reactions were stopped by adding equal volumes of 2×SDS sample loading buffer and the products were subjected to SDS-PAGE followed by immunoblotting with anti-XIAP antibody. The purified XIAP was active in directing poly-ubiquitylation. But the auto-ubiquitylation of XIAP was not enhanced by Smac.
Smac ΔA and the peptide Smac-7M were used as negative controls. The reactions were stopped by adding equal volumes of 2×SDS sample loading buffer and the products were subjected to SDS-PAGE followed by immunoblotting with anti-c-IAP1 antibody. The arrows indicate the unmodified full length or deleted c-IAP1.
To verify this, stepwise deletion was performed of the first BIR (ΔBIR1, residues 1-161), the first two BIRs (ΔBIR1-2, residues 1-265), or all the three BIR domains (ΔBIR1-2-3, residues 1-339) from c-IAP1. All these mutants and the full-length wild type c-IAP1 were purified as a non-tagged form by using the pTYB11 Intein system (New England Biolabs).

[4] = listed as Smac mutant lacking the initial Ala residue
[5] = mature Smac co-expressed, FIG. 1

T1 sequence (Q13489 whole entry): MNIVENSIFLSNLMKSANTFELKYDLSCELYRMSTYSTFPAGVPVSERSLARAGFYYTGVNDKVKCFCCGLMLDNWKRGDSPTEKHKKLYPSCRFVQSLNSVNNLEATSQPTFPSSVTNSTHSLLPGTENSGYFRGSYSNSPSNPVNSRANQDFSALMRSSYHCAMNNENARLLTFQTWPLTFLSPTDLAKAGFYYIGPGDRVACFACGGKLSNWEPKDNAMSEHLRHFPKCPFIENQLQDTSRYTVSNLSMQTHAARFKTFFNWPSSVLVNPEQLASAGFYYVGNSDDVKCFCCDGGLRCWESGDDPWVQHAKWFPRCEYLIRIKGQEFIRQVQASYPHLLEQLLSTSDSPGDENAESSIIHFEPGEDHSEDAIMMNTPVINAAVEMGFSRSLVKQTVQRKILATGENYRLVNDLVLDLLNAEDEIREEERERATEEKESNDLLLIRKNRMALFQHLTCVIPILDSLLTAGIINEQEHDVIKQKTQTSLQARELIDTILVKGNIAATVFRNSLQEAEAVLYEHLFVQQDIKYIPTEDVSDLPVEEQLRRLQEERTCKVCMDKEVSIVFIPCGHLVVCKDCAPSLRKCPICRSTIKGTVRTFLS

B1: Smac ΔA: Smac mutant lacking the initial Ala (Ala deletion mutant polypeptide), used as negative control (protein, UniProt Q9NR28 22-239, looked up, variant A1*)
Diablo IAP-binding …: LCVPVVANFKKRCFSELIRPWHKTVTIGFGVTLCVPIAQKSEPHSLSSEALMRRAVSLVTDSTSTFLSQTTYALIEAITEYTKAVYTLTSLYRQYTSLLGKMNSEEEDEVWQVIIGARAEMTSKHQEYLKLETTWMTAVGLSEMAAEAAYQTGADQASITARNHIQLVKLQVEEVHQLSRKAETKLAEAQIEELRQKTQEEGEERAESEQEAYLRED
With B1 the “auto-ubiquitylation (E3 activity) of c-IAP1” value [1] was “did not enhance the auto-ubiquitylation of c-IAP1”, the “auto-ubiquitylation (E3 activity) of c-IAP1” value [1, 4] was “did not promote the E3 activity” and the “ubiquitylation and degradation (E3 activity) of c-IAP2” value [2] was “did not promote the E3 activity”. The “c-IAP1 auto-ubiquitylation in vitro” value [3] was “failed to promote such auto-ubiquitylation”, the “c-IAP1 auto-ubiquitylation in vitro” value [3, 4] was “did not promote the E3 activity” and the “E3 activity of c-IAP1ΔBIR1” value ([3]; peptides and controls, FIG. 7B) was “failed to activate c-IAP1”.

B2: Smac: wild type (WT) Smac polypeptide from Homo sapiens, SEQ ID NO 1, 239 amino acids; second mitochondria-derived activator of caspase (protein, listed as Homo sapiens)
chain: MAALKSWLSRSVTSFFRYRQCLCVPVVANFKKRCFSELIRPWHKTVTIGFGVTLCAVPIAQKSEPHSLSSEALMRRAVSLVTDSTSTFLSQTTYALIEAITEYTKAVYTLTSLYRQYTSLLGKMNSEEEDEVWQVIIGARAEMTSKHQEYLKLETTWMTAVGLSEMAAEAAYQTGADQASITARNHIQLVKLQVEEVHQLSRKAETKLAEAQIEELRQKTQEEGEERAESEQEAYLRED
B2 was tested, and the “level of wild type c-IAP1” value ([1]; co-expression, absence of MG132, FIG. 2A) was “nearly complete disappearance of c-IAP1; also recorded: nearly non-detectable level”, the “levels of non-/mono-/di-ubiquitylated and highly ubiquitylated c-IAP1 forms” value ([1]; co-expression, presence of MG132, FIG. 2A) was “reduction in the level of non-ubiquitylated and mono-/di-ubiquitylated wild type c-IAP1 and a concomitant increase in the level of highly ubiquitylated c-IAP1 forms” and the “level of E3-negative H588A c-IAP1” value ([1]; either in the absence or in the presence of MG132) was “did not cause a drastic change”. The “protein level of c-IAP1” value [1, 5] was “significantly decreased”, the “level of c-IAP2” value ([2]; co-expression, absence of MG132, FIG. 2B) was “nearly non-detectable level” and the “ubiquitylation and degradation (E3 activity) of c-IAP2” value [2] was “strongly promoted the ubiquitylation and degradation of c-IAP2”. For the same molecule, the “protein level of c-IAP2” value [2, 5] was “significantly decreased”, the “auto-ubiquitylation activity of c-IAP1 ΔBIR1-2-3” value ([3]; all three BIR domains deleted (residues 1-339), FIG. 7A) was “could no longer be enhanced” and the “auto-ubiquitylation activity of c-IAP1 ΔBIR1” value ([3]; first BIR deleted (residues 1-161), FIG. 7A) was “significantly enhanced”. The “auto-ubiquitylation activity of c-IAP1 ΔBIR1-2” value ([3]; first two BIRs deleted (residues 1-265), FIG. 7A) was “significantly enhanced” and the “c-IAP1 auto-ubiquitylation in vitro” value [3] was “significantly enhanced c-IAP1 auto-ubiquitylation”.
